Source: paper PMC6751061

Biological target: T1, LexA (Bacillus subtilis 3610) (UniProt P31080)
T1 sequence: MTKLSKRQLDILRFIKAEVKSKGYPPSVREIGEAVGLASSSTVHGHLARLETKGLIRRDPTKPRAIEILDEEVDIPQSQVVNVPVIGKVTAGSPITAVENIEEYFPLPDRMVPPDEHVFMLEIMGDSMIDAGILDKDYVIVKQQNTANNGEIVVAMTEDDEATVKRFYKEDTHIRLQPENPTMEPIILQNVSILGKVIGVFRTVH
Assay: EMSA
Details: EMSA: 4 nM 32P probe, LexA 1-500 nM, binding buffer as printed (likely 5x stock): 100 mM HEPES pH 7.5, 100 mM Tris-HCl, 50% glycerol, 500 mM NaCl, 10 mM EDTA …

## AGGAGGGATCCTCTATATTGCTATTTCATGTTGGTGGATACAAGTAAAACCAAAATTTCCATATCCATCAGACTTAATGATTTTATCTAGAGAAATAGAAACGTAAACGAAAAAAATATTATTTTTTTAACTTTTTGTTTGAGCCTTTTTACAGATTGGAAGTCTTCAGAATAGGTCTTTTTTGGTAGTACTTACAATAATTATTATATTACATAAGTACTAGATCGTACACGAATTCCTCCT (double strand) [PsigNDN]
  binding signal (fold lower affinity): 500

## CCTGACGATCACTCATTCTATTTTTTCCTCCTTTATGTTACCACTACATATACTATACCCTGTTTGAAGGGATTTGCCAAGAAAAAAGCGAACGCATATTCGGATTTTTTCTTGGCGTGATTCCTATCAAAATATCATAATGTATCAGAGAAATCATGTTTTCTTAGGAGGATAATGTGCTG (double strand) [PrecA]
  binding: binds
